The data set addresses PvLDH (lactate dehydrogenase) (Plasmodium vivax, UniProt Q4PRK9 1-316). The data set can be described thus: flow cytometry (Ni-NTA beads). Conditions: protein: recombinant; tags: His6; chain copies: 4. In general terms: Flow cytometry measures light scatter and fluorescence of single cells or particles in a stream.

B1: N15 unmodified (ssDNA)
DNA: CACTCACGTCAGTGACATGCAGGTCCTCTCGCCCCCAGTGACTTGCGTGGTCAGAAATTTCGCACCAC
For orientation: Kd means the equilibrium constant for the complex coming apart. As to B1, the Kd was roughly 208 nM.

Values taken from PMC12436594, “Probing three-dimensional cyclooctatetraene for nucleobase modification in aptamer selection”.
